# Entries after “also recorded” stand apart in the source; their conditions may differ.
# B1: recombinant mIL-22: recombinant IL-22 (R&D) (protein, UniProt Q9JJY9 34-179, looked up)
# Interleukin-22: LPVNTRCKLEVSNFQQPYIVNRTFMLAKEASLADNNTDVRLIGEKLFRGVSAKDQCYLMKQVLNFTLEDVLLPQSDRFQPYMQEVVPFLTKLSNQLSSCHISGDDQNIQKNVRRLKETVKKLGESGEIKAIGELDLLFMSLRNACV
# B2: recombinant M-CSF: recombinant murine M-CSF (R&D) (protein, UniProt P07141 33-552, looked up)
# Macrophage colony-stimulating …: KEVSEHCSHMIGNGHLKVLQQLIDSQMETSCQIAFEFVDQEQLDDPVCYLKKAFFLVQDIIDETMRFKDNTPNANATERLQELSNNLNSCFTKDYEEQNKACVRTFHETPLQLLEKIKNFFNETKNLLEKDWNIFTKNCNNSFAKCSSRDVVTKPDCNCLYPKATPSSDPASASPHQPPAPSMAPLAGLAWDDSQRTEGSSLLPSELPLRIEDPGSAKQRPPRSTCQTLESTEQPNHGDRLTEDSQPHPSAGGPVPGVEDILESSLGTNWVLEEASGEASEGFLTQEAKFSPSTPVGGSIQAETDRPRALSASPFPKSTEDQKPVDITDRPLTEVNPMRPIGQTQNNTPEKTDGTSTLREDHQEPGSPHIATPNPQRVSNSATPVAQLLLPKSHSWGIVLPLGELEGKRSTRDRRSPAELEGGSASEGAARPVARFNSIPLTDTGHVEQHEGSSDPQIPESVFHLLVPGIILVLLTVGGLLFYKWKWRSHRDPQTLDSSVGRPEDSSLTQDEDRQVELPV
# How the values were obtained:
# HSC = assay: LPS-stimulated hepatic stellate cells in vitro; assay type: cell-based, mouse; settings: LPS-stimulated Dectin-1−/− HSC, 24 h; FIG. 14D
# Description: Murine hepatic NPC were collected as previously (Connolly et al., 2009, The Journal of clinical investigation 119, 3213-3225). Briefly, the portal vein was cannulated and infused with 1% Collagenase IV (Sigma). The liver was then removed, minced, and filtered to obtain single cell suspensions. Hepatocytes were excluded with serial low speed (400 RPM) centrifugation followed by high speed (2000 RPM) centrifugation to isolate the NPC, which were then further enriched over a 40% Optiprep (Sigma) gradient. […] In vitro proliferation was measured using the XTT cell proliferation kit (Roche). PKC activity was measured using a PKC Kinase Activity Assay Kit (Abcam). […]
# For Western blotting, total protein was isolated from 75 mg liver tissue by homogenization in RIPA buffer with Complete Protease Inhibitor cocktail (Roche). […] The presence of the co-immunoprecipitated proteins were determined by western blotting.
# liver regeneration = assay: 70% partial hepatectomy, liver regeneration; assay type: in vivo, mouse; settings: TCRδ−/− mice, 36 h, FIG. 29C
# Source text: C57BL/6, TCRδ^−/−, and C57BL/6-Trdc^tm1Mal mice were purchased from Jackson (Bar Harbor, Me.). For selected experiments, CD45.1 mice and C57BL/6 controls were purchased from Taconic (Germantown, N.Y.). Dectin-1^−/− mice were a gift from Gordon Brown (University of Aberdeen). Bone marrow chimeric animals were created by irradiating mice (9 Gy) followed by i.v. bone marrow transfer (10^7 cells) as described by us (Ochi et al., The Journal of clinical investigation 2012; 122:4118-29). The 70% partial hepatectomy procedure entailed ligation and removal of the left and median lobes of the liver in 8-12 week-old mice (Mitchell et al., Nat Protoc 2008; 3:1167-70). The sham operation consisted of a midline laparotomy alone. All animal procedures were approved by NYU School of Medicine IACUC.
# In selected experiments, NK1.1^+ cells were depleted using an mAb (PK136, 150 μg, eBiosciences, San Diego, Calif.). […]
# Liver tissues were fixed in formaldehyde, embedded in paraffin, and stained for B220 (RA3-6B2; BD), BrdU (Bu20a; Sigma), CCL20 (polyclonal, Abcam), CD45 (30-F11; BD), CD68 (KP1; Abcam), Ki67 (16A8; Biolegend), MPO (Rabbit polyclonal; LS Biosciences, Seattle, Wash.), PCNA (PC10; Biolegend). […] Data was quantified by examining 10 high-power fields (HPFs) per slide. […]
# macrophages = assay: Macrophages treated in vitro (M-CSF, M-CSF blockade, TNF-a blockade), CD14 and cytokine expression; assay type: cell-based, mouse
# Description: Murine hepatic NPC were collected as previously (Connolly et al., 2009, The Journal of clinical investigation 119, 3213-3225). Briefly, the portal vein was cannulated and infused with 1% Collagenase IV (Sigma). The liver was then removed, minced, and filtered to obtain single cell suspensions. Hepatocytes were excluded with serial low speed (400 RPM) centrifugation followed by high speed (2000 RPM) centrifugation to isolate the NPC, which were then further enriched over a 40% Optiprep (Sigma) gradient. Human liver NPCs were isolated using a similar protocol as we have described ((Ibrahim et al., 2012, Gastroenterology 143, 1061-1072). Human PBMC were isolated by overlaying whole blood diluted 1:1 in PBS over an equal amount of Ficoll. The cells were then spun at 2100 RPM for 21 min at 20° C. and buffy coat harvested to obtain the PBMC as described ((Rehman et al., 2013, Journal of immunology 190, 4640-4649). Single-cell suspensions of murine splenocytes were isolated by manual disruption of whole spleen and RBC lysis. For HSC isolation, the liver was perfused with 1% Collagenase IV and HSCs were enriched over a 2-layer Nicodenz (Sigma) gradient. HSC were used for experiments on day 14 of culture. […] In vitro proliferation was measured using the XTT cell proliferation kit (Roche). PKC activity was measured using a PKC Kinase Activity Assay Kit (Abcam). […]
# LPS-induced endotoxemia = LPS-induced endotoxemia / sepsis in mice; assay type: in vivo, mouse; settings: WT mice co-administered LPS and M-CSF; FIGS. 7G, 7H
# Description: C57BL/6 and CD45.1 mice were purchased from Jackson and bred in house. Dectin-1^−/− mice were a gift from Gordon Brown (University of Aberdeen). Mincle^−/− mice were obtained from the MMRRC. Age-matched 6-8 week old mice were used in all experiments. To induce hepatic fibrosis, female mice were treated with thrice weekly injections of TAA (250 mg/kg; Sigma) for 12 weeks as described (Connolly et al., 2009, The Journal of clinical investigation 119, 3213-3225). Alternatively, mice received bi-weekly injections of CCl4 (0.5 ml/kg; Sigma) for the same duration. To induce HCC, male mice were injected i.p. at 2 weeks of age with a single dose of DEN (15 mg/kg, Sigma) followed by bi-weekly injections of CCl4 (0.2 ml/kg) starting at 8 weeks of age ((Dapito et al., 2012, Cancer cell 21, 504-516). Mice were sacrificed 24 weeks later. To induce sepsis, male mice were injected i.p. with a single dose of LPS (15 mg/kg; Sigma). Rectal core body temperature was determined using a MicroTherma 2 temperature probe (Thermoworks). In selected experiments, MyD88 inhibitory peptide (1 mg/kg; Novus), an α-M-CSF neutralizing antibody (2 mg/kg; Clone 5A1, BioXCell), or an α-CD14 neutralizing antibody (4 mg/kg; Clone 4C1, BD Bioscience) was administered immediately preceding each TAA or LPS administration. At the time of sacrifice, blood and liver samples were harvested for analysis. […]
molecule,measurement,setting,value
"CN(C)CCCn1cc(C2=C(c3c[nH]c4ccccc34)C(=O)NC2=O)c2ccccc21 [PKC inhibition, GF109203X]",M-CSF expression in cell culture supernatant,HSC,abrogated the higher M-CSF expression
B1,rate of hepatic regeneration (BrdU incorporation),liver regeneration,rescued
same,rate of hepatic regeneration (BrdU incorporation),liver regeneration; listed as recombinant IL-22,impressively restored; also recorded: rescues
B2,MCP-1 and TNF-a expression,"macrophages; macrophages in vitro, cell-culture supernatant, FIG. 7F",upregulated
same,CD14 expression,"macrophages; macrophages treated with recombinant M-CSF, FIG. 7E",increased
same,"LPS-mediated sepsis (serum IL-6, core body temperature)",LPS-induced endotoxemia,exacerbated

# From patent US20160209425A1, “USE OF DECTIN-1 ACTIVATORS FOR TREATMENT OF LIVER DISORDERS” (NEW YORK UNIVERSITY, priority 2015, published 2016)
